Test results reported in IntAct's records for PubMed 35016035.

B1: Speedy protein E4 (Homo sapiens), A6NLX3 (parent)
chain: MASGQARPPFEEESPQPSTTVRSPEVVVDDEVPGPSAPWIDPSPQPQSLGLKRKSEWSDESEEELEEELELERAPEPEDTWVVETLCGLKMKLKRKRASSVLPEHHEAFNRLLGDPVVQKFLAWDKDLRVSDKYLLAMVIAYFSRAGLFSWQYQRIHFFLALYLASDMEEDNQAPKQDIFSFLYGKNYSQRPLFHKLRYQLLCSMRWRTWVSPEEMEEIQAYDPEHWVWARDRTLIS
B2: Protein FAM90A1 (Homo sapiens), Q86YD7 (parent)
chain: MMARRDPKPGAKRLVRAQTLQKQRRAPVGPRAPPPDEEDPRLKCKNCEAFGHTARSTRCPMKCWKAALVPPNFGEKEGKENLKPWKPQVEANPGPLNKDKGEKEERPRPQDPQRKALLHIFSRKPPEKPLPNQKGSTESSDYLRVASGPMPVHTTSKRPRVDPVLSDRSATEMSDRGSVLASLSPLRKASLSSSSSLGPKERQTGAAADIPQTAVRHQGPEPLLVVKPTHSSPAGGCREVPQAASKTHGLLQAVSPQAQDKRPAVTSQPCPPAATHSLGLGSNLSFGPGAKRSAPAPIQACLNFPKKPRLGPFQIPESAIQGGELGAPENLQPPPAATELGPRTSPQTGTRTPAQVLSGDRQPPHSRPCLPTAQACTMSHHPAASHDGAQPLRVLFRRLENGRWSSSLLTAPSFHSPEKPGAFLAQSPHVSEKSEGPCVRVPPSVLYEDLQVPSSSEDSDSDLE

Variants of: B1
Conditions: with brd4_human BRD4, O60885

Row | effect of a mutation on the interaction | Variant
1 | disrupting interaction strength | V83D;L86D;M91D;L93D

Variants of: B2
Conditions: with brd4_human BRD4, O60885

Row | effect of a mutation on the interaction | Variant
2 | disrupting interaction strength | V394D;F396D;W404D;S406D
